Patent US20190077860A1 (EISAI R AND D MANAGEMENT, published 2019)

T1: human EphA6 extracellular region-SEAP-His protein (human, UniProt Q9UF33 23-550)
T1 construct: extracellular domain; also called hEphA6-SEAP-His
T1 sequence (looked up): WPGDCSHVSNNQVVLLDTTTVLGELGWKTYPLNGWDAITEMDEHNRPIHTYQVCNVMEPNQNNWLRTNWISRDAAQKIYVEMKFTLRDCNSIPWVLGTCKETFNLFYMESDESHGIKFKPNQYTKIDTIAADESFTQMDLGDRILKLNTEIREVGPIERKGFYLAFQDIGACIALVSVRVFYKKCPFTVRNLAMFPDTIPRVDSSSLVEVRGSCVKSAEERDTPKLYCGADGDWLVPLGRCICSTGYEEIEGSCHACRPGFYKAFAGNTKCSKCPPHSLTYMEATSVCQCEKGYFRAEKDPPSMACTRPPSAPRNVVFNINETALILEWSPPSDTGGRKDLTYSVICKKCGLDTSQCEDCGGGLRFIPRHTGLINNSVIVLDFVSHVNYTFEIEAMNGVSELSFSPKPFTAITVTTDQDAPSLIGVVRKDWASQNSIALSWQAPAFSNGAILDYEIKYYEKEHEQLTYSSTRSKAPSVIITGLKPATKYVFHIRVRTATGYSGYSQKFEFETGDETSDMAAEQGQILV

T2: human EphB1 extracellular region-SEAP-His protein (human, UniProt P54762 18-540)
T2 construct: extracellular domain; also called hEphB1-SEAP-His
T2 sequence (looked up): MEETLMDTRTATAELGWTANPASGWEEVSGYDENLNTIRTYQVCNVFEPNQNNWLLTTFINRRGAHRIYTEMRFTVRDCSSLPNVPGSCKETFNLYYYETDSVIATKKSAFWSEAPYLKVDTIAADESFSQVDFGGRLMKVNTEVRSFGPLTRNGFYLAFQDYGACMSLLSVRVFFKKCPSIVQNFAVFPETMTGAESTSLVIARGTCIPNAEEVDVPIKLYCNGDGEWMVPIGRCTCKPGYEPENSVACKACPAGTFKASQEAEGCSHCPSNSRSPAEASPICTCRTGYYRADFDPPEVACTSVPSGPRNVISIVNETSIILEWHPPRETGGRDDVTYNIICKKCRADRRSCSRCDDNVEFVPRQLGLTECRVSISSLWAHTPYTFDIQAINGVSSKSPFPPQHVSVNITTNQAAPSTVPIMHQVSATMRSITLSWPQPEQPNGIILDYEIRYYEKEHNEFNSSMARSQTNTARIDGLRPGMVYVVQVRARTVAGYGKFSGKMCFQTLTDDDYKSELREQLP

T3: human EphB3 extracellular region-SEAP-His protein (human, UniProt P54753 34-559)
T3 construct: extracellular domain; also called hEphB3-SEAP-His
T3 sequence (looked up): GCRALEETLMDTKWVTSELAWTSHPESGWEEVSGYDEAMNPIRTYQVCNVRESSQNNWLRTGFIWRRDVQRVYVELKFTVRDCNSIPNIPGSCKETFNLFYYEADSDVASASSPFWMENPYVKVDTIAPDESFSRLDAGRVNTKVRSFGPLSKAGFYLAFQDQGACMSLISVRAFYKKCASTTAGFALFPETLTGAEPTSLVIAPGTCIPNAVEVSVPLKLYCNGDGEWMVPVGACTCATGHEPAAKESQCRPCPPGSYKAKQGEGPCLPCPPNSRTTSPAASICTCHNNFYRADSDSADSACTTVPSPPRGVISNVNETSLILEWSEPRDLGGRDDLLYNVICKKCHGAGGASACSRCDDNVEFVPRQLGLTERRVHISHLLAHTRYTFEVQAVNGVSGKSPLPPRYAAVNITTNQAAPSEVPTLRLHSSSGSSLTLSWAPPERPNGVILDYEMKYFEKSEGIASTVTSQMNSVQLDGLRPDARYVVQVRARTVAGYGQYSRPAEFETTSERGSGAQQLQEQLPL

T4: human EphB4 extracellular region-SEAP-His protein (human, UniProt P54760 16-539)
T4 construct: extracellular domain; also called hEphB4-SEAP-His
T4 sequence (looked up): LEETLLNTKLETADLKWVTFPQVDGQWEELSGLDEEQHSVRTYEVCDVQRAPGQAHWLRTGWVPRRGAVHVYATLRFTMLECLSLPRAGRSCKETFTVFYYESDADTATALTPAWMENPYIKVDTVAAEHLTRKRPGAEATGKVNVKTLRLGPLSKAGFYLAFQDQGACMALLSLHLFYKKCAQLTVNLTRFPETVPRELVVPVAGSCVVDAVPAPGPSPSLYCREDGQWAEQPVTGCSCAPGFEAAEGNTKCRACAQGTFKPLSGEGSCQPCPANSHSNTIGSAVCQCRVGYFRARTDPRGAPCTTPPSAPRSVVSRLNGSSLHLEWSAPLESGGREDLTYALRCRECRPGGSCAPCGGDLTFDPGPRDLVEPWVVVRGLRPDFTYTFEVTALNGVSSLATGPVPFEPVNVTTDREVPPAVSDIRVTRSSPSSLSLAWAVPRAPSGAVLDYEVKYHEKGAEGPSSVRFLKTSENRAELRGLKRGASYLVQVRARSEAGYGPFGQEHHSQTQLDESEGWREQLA

B1: humanized antibody No. 76 (antibody, human IgG1, kappa)
heavy: QVQLVQSGSELKKPGASVKVSCKASGYTFTDYSMHWVRQAPGQGLKWMGWINTETGEPTYAQGFTGRFVFSLDTSVSTAYLQISSLKAEDTAVYYCARIPLYYYGSRYWYFDVWGQGTTVTVSSASTKGPSVFPLAPSSKSTSGGTAALGCLVKDYFPEPVTVSWNSGALTSGVHTFPAVLQSSGLYSLSSVVTVPSSSLGTQTYICNVNHKPSNTKVDKRVEPKSCDKTHTCPPCPAPPAAAPSVFLFPPKPKDTLMISRTPEVTCVVVDVSHEDPEVQFNWYVDGVEVHNAKTKPREEQFNSTFRVVSVLTVVHQDWLNGKEYKCKVSNKGLPAPIEKTISKTKGQPREPQVYTLPPSREEMTKNQVSLTCLVKGFYPSDIAVEWESNGQPENNYKTTPPMLDSDGSFFLYSKLTVDKSRWQQGNVFSCSVMHEALHNHYTQKSLSLSPG
light: DIQMTQSPSSLSASVGDRVTITCRASENIYRNLAWYQQKPGKAPKLLVYAATNLADGVPSRFSGSGSGTDYTLTISSLQPEDFATYYCQHFWGTPWTFGQGTKVEIKRTVAAPSVFIFPPSDEQLKSGTASVVCLLNNFYPREAKVQWKVDNALQSGNSQESVTEQDSKDSTYSLSSTLTLSKADYEKHKVYACEVTHQGLSSPVTKSFNRGEC
notes: human Ig kappa; also called L1-4/HA2
B2: humanized antibody No. 67 (antibody, human IgG1, kappa)
heavy: QIQLVQSGSELKKPGASVKVSCKASGYTFTDYSMHWVRQAPGQGLKWMGWINTETGEPTYAQGFTGRFVFSLDTSVSTAYLQISSLKAEDTAVYYCARIPLYYYGSRYWYFDVWGQGTTVTVSSASTKGPSVFPLAPSSKSTSGGTAALGCLVKDYFPEPVTVSWNSGALTSGVHTFPAVLQSSGLYSLSSVVTVPSSSLGTQTYICNVNHKPSNTKVDKRVEPKSCDKTHTCPPCPAPPAAAPSVFLFPPKPKDTLMISRTPEVTCVVVDVSHEDPEVQFNWYVDGVEVHNAKTKPREEQFNSTFRVVSVLTVVHQDWLNGKEYKCKVSNKGLPAPIEKTISKTKGQPREPQVYTLPPSREEMTKNQVSLTCLVKGFYPSDIAVEWESNGQPENNYKTTPPMLDSDGSFFLYSKLTVDKSRWQQGNVFSCSVMHEALHNHYTQKSLSLSPG
light: DIQMTQSPSSLSASVGDRVTITCRASENIYRNLAWYQQKPGKAPKLLVYAATNLADGVPSRFSGSGSGTDYTLTISSLQPEDFATYYCQHFWGTPWTFGQGTKVEIKRTVAAPSVFIFPPSDEQLKSGTASVVCLLNNFYPREAKVQWKVDNALQSGNSQESVTEQDSKDSTYSLSSTLTLSKADYEKHKVYACEVTHQGLSSPVTKSFNRGEC
notes: human Ig kappa; also called L1-4/HA4
B3: humanized antibody No. 69 (antibody, human IgG1, kappa)
heavy: QIQLVQSGSELKKPGASVKVSCKASGYTFTDYSMHWVRQAPGQGLKWMGWINTETGEPTYADDFKGRFVFSLDTSVSTAYLQISSLKAEDTAVYYCARIPLYYYGSRYWYFDVWGQGTTVTVSSASTKGPSVFPLAPSSKSTSGGTAALGCLVKDYFPEPVTVSWNSGALTSGVHTFPAVLQSSGLYSLSSVVTVPSSSLGTQTYICNVNHKPSNTKVDKRVEPKSCDKTHTCPPCPAPPAAAPSVFLFPPKPKDTLMISRTPEVTCVVVDVSHEDPEVQFNWYVDGVEVHNAKTKPREEQFNSTFRVVSVLTVVHQDWLNGKEYKCKVSNKGLPAPIEKTISKTKGQPREPQVYTLPPSREEMTKNQVSLTCLVKGFYPSDIAVEWESNGQPENNYKTTPPMLDSDGSFFLYSKLTVDKSRWQQGNVFSCSVMHEALHNHYTQKSLSLSPG
light: DIQMTQSPSSLSASVGDRVTITCRASENIYRNLAWYQQKPGKAPKLLVYAATNLADGVPSRFSGSGSGTDYTLTISSLQPEDFATYYCQHFWGTPWTFGQGTKVEIKRTVAAPSVFIFPPSDEQLKSGTASVVCLLNNFYPREAKVQWKVDNALQSGNSQESVTEQDSKDSTYSLSSTLTLSKADYEKHKVYACEVTHQGLSSPVTKSFNRGEC
notes: human Ig kappa; also called L1-4/HK4
B4: humanized antibody No. 75 (antibody, human IgG1, kappa)
heavy: QVQLVQSGSELKKPGASVKVSCKASGYTFTDYSMHWVRQAPGQGLEWMGWINTETGEPTYAQGFTGRFVFSLDTSVSTAYLQISSLKAEDTAVYYCARIPLYYYGSRYWYFDVWGQGTTVTVSSASTKGPSVFPLAPSSKSTSGGTAALGCLVKDYFPEPVTVSWNSGALTSGVHTFPAVLQSSGLYSLSSVVTVPSSSLGTQTYICNVNHKPSNTKVDKRVEPKSCDKTHTCPPCPAPPAAAPSVFLFPPKPKDTLMISRTPEVTCVVVDVSHEDPEVQFNWYVDGVEVHNAKTKPREEQFNSTFRVVSVLTVVHQDWLNGKEYKCKVSNKGLPAPIEKTISKTKGQPREPQVYTLPPSREEMTKNQVSLTCLVKGFYPSDIAVEWESNGQPENNYKTTPPMLDSDGSFFLYSKLTVDKSRWQQGNVFSCSVMHEALHNHYTQKSLSLSPG
light: DIQMTQSPSSLSASVGDRVTITCRASENIYRNLAWYQQKPGKAPKLLVYAATNLADGVPSRFSGSGSGTDYTLTISSLQPEDFATYYCQHFWGTPWTFGQGTKVEIKRTVAAPSVFIFPPSDEQLKSGTASVVCLLNNFYPREAKVQWKVDNALQSGNSQESVTEQDSKDSTYSLSSTLTLSKADYEKHKVYACEVTHQGLSSPVTKSFNRGEC
notes: constant region: human IgG1 CH1 and hinge, human IgG2 CH2 and CH3 with V234A, G237A, no C-terminal Lys; human Ig kappa; also called L1-4/HA1

Experiments:
Test in all cases: ELISA
[1] = target: T5, human EphA2 extracellular region-SEAP-His protein (human, UniProt P29317 24-537)
T5 construct: extracellular domain; also called hEphA2-SEAP-His
T5 sequence (P29317 24-537): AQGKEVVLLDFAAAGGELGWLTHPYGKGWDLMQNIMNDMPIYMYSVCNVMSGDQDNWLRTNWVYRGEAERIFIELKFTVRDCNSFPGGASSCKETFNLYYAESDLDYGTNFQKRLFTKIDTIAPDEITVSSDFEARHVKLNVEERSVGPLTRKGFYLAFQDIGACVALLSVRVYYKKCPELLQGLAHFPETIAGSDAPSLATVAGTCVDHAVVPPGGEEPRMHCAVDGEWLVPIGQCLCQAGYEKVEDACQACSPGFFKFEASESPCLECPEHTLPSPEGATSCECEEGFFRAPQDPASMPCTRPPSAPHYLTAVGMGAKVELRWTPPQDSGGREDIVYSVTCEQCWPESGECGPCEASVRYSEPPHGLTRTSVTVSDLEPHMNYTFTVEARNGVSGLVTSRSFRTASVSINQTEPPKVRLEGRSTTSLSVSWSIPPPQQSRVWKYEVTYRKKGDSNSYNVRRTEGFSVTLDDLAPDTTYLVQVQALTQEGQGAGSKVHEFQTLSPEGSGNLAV

[2] = target: T1, human EphA6 extracellular …
[3] = target: T2, human EphB1 extracellular …
[4] = target: T3, human EphB3 extracellular …
[5] = target: T4, human EphB4 extracellular …
[6] = target: T6, human EphA4 extracellular region-SEAP-His protein (human, UniProt P54764 20-547)
T6 construct: also called hEphA4-SEAP-His
T6 sequence (P54764 20-547): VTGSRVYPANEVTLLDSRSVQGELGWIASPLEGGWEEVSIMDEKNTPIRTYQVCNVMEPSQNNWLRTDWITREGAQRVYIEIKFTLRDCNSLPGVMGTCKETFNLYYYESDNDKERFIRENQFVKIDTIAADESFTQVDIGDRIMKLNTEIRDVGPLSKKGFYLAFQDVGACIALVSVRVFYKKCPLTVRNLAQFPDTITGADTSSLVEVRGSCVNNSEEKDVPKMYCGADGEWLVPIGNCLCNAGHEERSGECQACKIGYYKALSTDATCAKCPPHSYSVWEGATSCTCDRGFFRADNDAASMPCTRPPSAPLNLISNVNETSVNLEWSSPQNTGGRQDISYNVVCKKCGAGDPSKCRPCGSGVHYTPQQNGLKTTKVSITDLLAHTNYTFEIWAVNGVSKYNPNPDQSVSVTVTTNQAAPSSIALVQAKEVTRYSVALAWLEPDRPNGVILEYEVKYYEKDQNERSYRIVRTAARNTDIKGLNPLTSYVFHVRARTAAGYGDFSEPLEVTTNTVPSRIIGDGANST

Binder	A450 as % of hEphA4-SEAP-His [1]	A450 as % of hEphA4-SEAP-His [2]	A450 as % of hEphA4-SEAP-His [3]	A450 as % of hEphA4-SEAP-His [4]	A450 as % of hEphA4-SEAP-His [5]	A450 as % of hEphA4-SEAP-His [6]
B1	4.8%	7.9%	4.9%	5%	5.2%	100%
B2	4.6%	7.3%	4.6%	4.9%	4.9%	100%
B3	5.5%	9.5%	5.6%	5.9%	5.5%	100%
B4	4.6%	8.3%	4.4%	4.7%	4.6%	100%
